Results from patent US20120039915A1.

Biological target: antigen bound by the GC4 antibody on GBM tumor sphere cells (target antigen not determined)
Test: FACS on GBM tumor sphere cells at RT, MFI fitted (apparent dissociation constant)

B1: recombinant human GC4 IgG1 (antibody, V domains shown)
VH: QVQLVESGGGLVQPGGSLRLSCAASGFTFGTYDMSWVRQAPGKGLEWVSGISGSGGSTYYADSVKGRFTISRDNSKNTVYLQMNSLRVEDTAVYYCARGGWYSDNWGQGTLVTVSS
VL: SELTQDPAVSVALGQTVRITCQGGSLRSYYASWYQQKPGQAPLLVIYGENNRPSGIPDRFSGSSSGNTASLTITGAQAEDEADYYCHSRDSSGNHVVFGGGTKLTV
Kd: 79.7 nM
